Measurements reported in patent US20130130320, “ENZYMES” (published 2013).

B1: K0 DNA primer / TempK4 (dsDNA)
DNA 1: GCACGGCAGCACGTG
DNA 2: ACTGCGATGACTGTACTCGTCTAGTAGCACTGCACGTGCTGCCGTGC

Columns and labels:
Tat (HIV-1?) = test: competition
TGK (TgoT Y409G E664K) = target: T1, TGK (TgoT Y409G E664K) (Thermococcus gorgonarius, UniProt P56689 SEQ:1-773, Y409G,E664K); test: EMSA; second gate mutation vs parental E664; individual mutants and Kd values not stated; Thermopol, 1 mM EDTA; conditions: label: 5'-FITC primer, 5'-biotin template, 5' template overhang
T1 sequence: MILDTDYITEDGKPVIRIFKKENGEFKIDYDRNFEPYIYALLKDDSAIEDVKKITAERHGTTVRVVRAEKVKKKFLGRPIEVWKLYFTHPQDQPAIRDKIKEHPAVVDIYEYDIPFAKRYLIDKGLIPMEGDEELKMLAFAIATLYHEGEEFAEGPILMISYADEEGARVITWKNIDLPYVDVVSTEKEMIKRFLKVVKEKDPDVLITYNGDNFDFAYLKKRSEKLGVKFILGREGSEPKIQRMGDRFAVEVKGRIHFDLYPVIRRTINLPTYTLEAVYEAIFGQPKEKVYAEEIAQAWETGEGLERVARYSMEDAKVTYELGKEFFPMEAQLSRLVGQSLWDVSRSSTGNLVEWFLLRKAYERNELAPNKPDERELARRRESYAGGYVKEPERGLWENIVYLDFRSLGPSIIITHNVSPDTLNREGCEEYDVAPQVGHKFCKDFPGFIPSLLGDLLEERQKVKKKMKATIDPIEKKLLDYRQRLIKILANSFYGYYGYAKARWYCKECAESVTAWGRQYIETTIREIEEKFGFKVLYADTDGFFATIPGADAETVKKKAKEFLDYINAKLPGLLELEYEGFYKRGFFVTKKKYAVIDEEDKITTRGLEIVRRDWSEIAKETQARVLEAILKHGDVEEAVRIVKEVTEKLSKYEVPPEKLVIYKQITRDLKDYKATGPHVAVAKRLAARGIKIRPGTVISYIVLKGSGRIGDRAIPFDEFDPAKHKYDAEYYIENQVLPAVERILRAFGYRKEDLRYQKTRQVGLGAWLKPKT
Description: The reactions were mixed, heated to 94° C. for 30 sec and cooled at 0.1° C./sec to 4° C. before loading onto precooled 6% TBE gel (Invitrogen) and run for 1 h at 100V in precooled 1×TBE. Bands were quantified using a Typhoon Trio and ImageQuant and the shift fitted to y=(Bmax*x)/(Kd+x) using MatLab (The MathWorks Ltd).

Row | Molecule | IC50 (Tat (HIV-1?); IC50 of HNA aptamer T5S8-7 displacing Tat from immobilised miniTAR (CI95 1.3-2.8)) [nM] | IC50 (Tat (HIV-1?); IC50 of RNA aptamer R06 displacing Tat from immobilised miniTAR (CI95 166-675)) [nM] | binding result (TGK (TgoT Y409G E664K))
1 | miniTAR RNA | 1.9 | 313 | –
2 | B1 | – | – | binds
